Test results published in the supplement of paper PMC9876800.

System: peptide library, one residue held at a place counted from the S/T acceptor
Test: relative phosphorylation of the sub-library (ratio to the mean residue at this position); higher = residue favoured
How it was run: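 Human or orthologue kinase constructs, purified and recombinant, were incubated under kinase-specific conditions in 384-well plates with biotinylated degenerate peptide sub-libraries. Each sub-library fixed one residue at one position around a central Ser/Thr. Incubations lasted 90 min with peptides at 50 μM and 50 μM ATP spiked with γ-32P-ATP, after which spots on streptavidin membranes were phosphorimaged and quantified by densitometry. Relative sub-library phosphorylation is a ratio to the mean residue at that position.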

MAP3K14, construct: aa327-673, human, sequence (Q99558 327-673, looked up): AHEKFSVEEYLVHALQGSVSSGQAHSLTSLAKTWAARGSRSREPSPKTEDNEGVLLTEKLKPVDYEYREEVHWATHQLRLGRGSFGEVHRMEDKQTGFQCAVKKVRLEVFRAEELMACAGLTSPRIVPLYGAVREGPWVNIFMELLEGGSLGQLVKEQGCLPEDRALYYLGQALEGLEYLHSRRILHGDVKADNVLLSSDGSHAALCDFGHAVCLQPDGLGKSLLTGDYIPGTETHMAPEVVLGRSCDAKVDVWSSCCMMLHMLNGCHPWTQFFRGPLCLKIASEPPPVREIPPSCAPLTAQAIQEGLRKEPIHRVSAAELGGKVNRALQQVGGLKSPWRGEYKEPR
HUNK, construct: Full length, human, sequence (P57058 whole entry, looked up): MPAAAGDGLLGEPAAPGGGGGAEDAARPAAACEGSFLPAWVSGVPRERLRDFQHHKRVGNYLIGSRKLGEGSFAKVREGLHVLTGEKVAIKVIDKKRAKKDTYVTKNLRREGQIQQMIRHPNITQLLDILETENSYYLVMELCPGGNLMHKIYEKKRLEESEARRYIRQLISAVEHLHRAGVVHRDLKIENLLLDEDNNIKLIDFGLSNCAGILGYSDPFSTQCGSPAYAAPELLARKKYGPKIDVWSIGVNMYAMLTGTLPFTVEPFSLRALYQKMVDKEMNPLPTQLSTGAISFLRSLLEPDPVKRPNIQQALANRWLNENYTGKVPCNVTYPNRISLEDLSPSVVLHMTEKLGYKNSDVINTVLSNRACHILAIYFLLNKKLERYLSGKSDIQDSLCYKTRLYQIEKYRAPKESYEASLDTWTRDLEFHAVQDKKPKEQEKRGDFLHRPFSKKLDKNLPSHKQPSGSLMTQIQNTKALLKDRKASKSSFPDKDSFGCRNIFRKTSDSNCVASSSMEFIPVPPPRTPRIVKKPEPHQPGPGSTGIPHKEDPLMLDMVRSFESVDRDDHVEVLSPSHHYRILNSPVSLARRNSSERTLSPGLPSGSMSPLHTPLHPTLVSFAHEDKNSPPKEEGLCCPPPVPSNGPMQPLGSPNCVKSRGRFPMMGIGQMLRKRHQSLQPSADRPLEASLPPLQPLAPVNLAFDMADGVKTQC
MAP3K1, construct: aa1174-end, human, sequence (Q13233 1174-1512, looked up): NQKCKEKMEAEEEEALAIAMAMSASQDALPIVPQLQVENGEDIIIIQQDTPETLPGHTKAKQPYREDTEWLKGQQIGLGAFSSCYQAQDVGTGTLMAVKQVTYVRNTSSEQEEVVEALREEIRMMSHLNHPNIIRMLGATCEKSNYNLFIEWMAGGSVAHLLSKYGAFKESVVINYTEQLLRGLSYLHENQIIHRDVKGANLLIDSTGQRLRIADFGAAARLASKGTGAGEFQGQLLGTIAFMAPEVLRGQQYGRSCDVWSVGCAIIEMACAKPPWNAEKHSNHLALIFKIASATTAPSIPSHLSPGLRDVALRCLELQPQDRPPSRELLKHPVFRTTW

HUNK, construct: Full length, human (from UniProt P57058)
relative phosphorylation
Conditions | at +1 | at +2 | at +3 | at +4 | at -1 | at -2 | at -3 | at -4 | at -5
A fixed | 1.03 | 1.5 | 0.679 | 0.686 | 1.56 | 1.41 | 1.16 | 1.13 | 1.27
D fixed | 0.435 | 0.428 | 2.19 | 1.05 | 0.948 | 0.95 | 0.524 | 0.889 | 0.9
E fixed | 0.527 | 0.447 | 1.01 | 0.957 | 1.04 | 0.921 | 0.728 | 1.19 | 0.832
F fixed | 1.58 | 0.842 | 1.37 | 1.85 | 0.461 | 0.831 | 0.927 | 0.798 | 0.759
G fixed | 0.784 | 0.624 | 0.66 | 0.751 | 1.03 | 0.896 | 1.07 | 1.15 | 1.37
H fixed | 0.814 | 1.65 | 1.04 | 0.811 | 0.795 | 1.05 | 1.97 | 0.947 | 1.09
I fixed | 0.538 | 1.44 | 0.61 | 1.72 | 0.555 | 1 | 0.798 | 0.942 | 0.953
K fixed | 0.713 | 0.591 | 0.493 | 0.609 | 1.38 | 0.725 | 0.726 | 1.02 | 1.23
L fixed | 0.882 | 0.747 | 0.704 | 1.39 | 0.571 | 0.867 | 1.19 | 1.39 | 0.947
M fixed | 1.81 | 0.549 | 0.945 | 1.71 | 1.01 | 0.946 | 1.3 | 1.04 | 0.811
N fixed | 0.794 | 0.829 | 1.85 | 0.873 | 1.11 | 1.28 | 0.675 | 0.993 | 1.03
P fixed | 0.301 | 0.355 | 0.287 | 0.64 | 1.06 | 0.395 | 0.961 | 0.786 | 0.917
Q fixed | 1.73 | 0.582 | 0.661 | 0.712 | 1.17 | 1.3 | 0.749 | 0.797 | 0.725
R fixed | 1.01 | 0.814 | 0.766 | 0.758 | 2.41 | 1.44 | 1.35 | 0.963 | 1.3
V fixed | 0.701 | 2.16 | 0.599 | 0.735 | 0.576 | 1.25 | 0.559 | 0.833 | 0.842
W fixed | 1.49 | 1.7 | 2.1 | 0.853 | 0.626 | 0.916 | 0.991 | 1.15 | 0.943
Y fixed | 1.87 | 1.74 | 1.03 | 0.903 | 0.694 | 0.806 | 1.32 | 0.987 | 1.08
pThr fixed | 1.16 | 1.58 | 0.532 | 0.85 | 0.689 | 1.65 | 0.827 | 0.821 | 0.727
pTyr fixed | 0.97 | 1.71 | 0.92 | 0.972 | 0.873 | 0.669 | 0.897 | 0.783 | 0.806

MAP3K1, construct: aa1174-end, human (from UniProt Q13233)
relative phosphorylation
Conditions | at +1 | at +2 | at +3 | at +4 | at -1 | at -2 | at -3 | at -4 | at -5
A fixed | 0.537 | 1.1 | 0.749 | 0.741 | 0.7 | 1.08 | 1.07 | 1.01 | 1.04
D fixed | 0.324 | 0.73 | 0.46 | 0.814 | 1.35 | 1.11 | 1.04 | 1.21 | 1.21
E fixed | 0.309 | 0.439 | 0.395 | 0.711 | 0.98 | 0.858 | 1.14 | 1.08 | 1.23
F fixed | 1.12 | 0.619 | 1.17 | 0.878 | 0.741 | 1.01 | 0.862 | 1.06 | 0.837
G fixed | 0.785 | 0.9 | 0.977 | 1.14 | 1.22 | 1.31 | 1.44 | 1.33 | 1.67
H fixed | 0.853 | 1.27 | 1.03 | 1.23 | 1.89 | 1.33 | 1.19 | 1.17 | 1.19
I fixed | 2.35 | 0.826 | 1.35 | 1.13 | 0.522 | 0.69 | 0.849 | 0.721 | 0.812
K fixed | 0.593 | 1.57 | 0.996 | 1.04 | 0.791 | 0.644 | 0.659 | 0.899 | 0.897
L fixed | 1.31 | 0.49 | 1.35 | 0.914 | 0.711 | 1.03 | 0.772 | 0.715 | 0.565
M fixed | 1.88 | 1.03 | 1.46 | 1.1 | 1.23 | 1.29 | 1.16 | 0.793 | 0.832
N fixed | 0.688 | 1.38 | 0.727 | 1.02 | 1.57 | 1.26 | 0.989 | 0.996 | 1.09
P fixed | 0.343 | 0.583 | 0.773 | 0.923 | 0.893 | 0.839 | 1.13 | 0.952 | 1.07
Q fixed | 0.963 | 0.825 | 0.725 | 0.823 | 1.09 | 1.03 | 0.78 | 0.838 | 0.761
R fixed | 0.837 | 2.5 | 1.24 | 1.6 | 1.38 | 0.832 | 0.857 | 0.954 | 1.17
V fixed | 1.77 | 0.777 | 0.812 | 0.66 | 0.479 | 0.581 | 0.639 | 0.735 | 0.65
W fixed | 1.19 | 0.798 | 1.41 | 1.19 | 0.599 | 0.943 | 1.27 | 1.54 | 0.897
Y fixed | 1.15 | 1.17 | 1.36 | 1.08 | 0.855 | 1.16 | 1.15 | 0.982 | 1.09
pThr fixed | 0.504 | 0.403 | 0.516 | 0.644 | 0.679 | 0.909 | 1.05 | 0.952 | 1.05
pTyr fixed | 0.495 | 0.368 | 0.623 | 0.696 | 0.796 | 0.796 | 1.22 | 0.824 | 1.36

MAP3K14, construct: aa327-673, human (from UniProt Q99558)
relative phosphorylation
Conditions | at +1 | at +2 | at +3 | at +4 | at -1 | at -2 | at -3 | at -4 | at -5
A fixed | 0.858 | 0.835 | 0.87 | 0.88 | 0.975 | 1.06 | 0.893 | 1 | 0.972
D fixed | 0.726 | 0.707 | 0.858 | 0.865 | 0.8 | 0.709 | 0.687 | 0.783 | 0.764
E fixed | 0.775 | 0.682 | 0.769 | 0.786 | 0.755 | 0.73 | 0.705 | 0.877 | 0.735
F fixed | 1.21 | 0.85 | 0.978 | 0.96 | 0.787 | 0.923 | 0.751 | 0.89 | 1.04
G fixed | 0.867 | 0.83 | 0.956 | 1.04 | 1.09 | 1.01 | 0.925 | 1.02 | 0.917
H fixed | 0.973 | 1.15 | 1.11 | 1.04 | 1.16 | 1.08 | 1.08 | 1.06 | 1.05
I fixed | 1 | 0.886 | 0.795 | 0.924 | 0.66 | 0.713 | 0.64 | 0.804 | 0.879
K fixed | 1.08 | 1.68 | 1.36 | 1.36 | 1.49 | 1.19 | 1.92 | 1.53 | 1.38
L fixed | 1.09 | 0.908 | 0.971 | 1.02 | 0.874 | 0.78 | 0.731 | 0.896 | 1.23
M fixed | 1.26 | 0.844 | 0.875 | 0.962 | 0.966 | 1.02 | 0.753 | 0.977 | 1.04
N fixed | 0.909 | 0.978 | 1.18 | 1.09 | 1.19 | 0.954 | 0.904 | 1.02 | 0.911
P fixed | 0.69 | 0.817 | 0.935 | 1.25 | 1.02 | 0.763 | 0.843 | 0.924 | 1.05
Q fixed | 1.09 | 0.918 | 0.979 | 1.06 | 1.04 | 1.18 | 0.97 | 1.03 | 0.921
R fixed | 1.2 | 2.11 | 1.49 | 1.23 | 1.63 | 1.94 | 2.81 | 1.49 | 1.43
V fixed | 0.988 | 0.892 | 0.81 | 0.866 | 0.687 | 0.76 | 0.652 | 0.843 | 0.808
W fixed | 1.21 | 0.909 | 1.09 | 0.827 | 0.814 | 1.12 | 0.939 | 0.938 | 0.945
Y fixed | 1.06 | 0.998 | 0.983 | 0.841 | 1.07 | 1.07 | 0.793 | 0.931 | 0.921
pThr fixed | 0.918 | 0.837 | 0.843 | 0.923 | 0.678 | 0.769 | 0.827 | 0.899 | 0.877
pTyr fixed | 0.869 | 0.849 | 0.889 | 0.774 | 0.829 | 0.824 | 1.01 | 0.941 | 0.985
